This is an account of results in article PMC4198062.

In the test the target is c-Jun (UniProt P05412). Briefly: single molecule FRET, surface-immobilized PAGE4. The note with it: reference: PAGE4 P102C expressed alone (nonphosphorylated); sites T51.

With “PAGE4 (from UniProt O60829) PAGE4 P102C coexpressed with GST-HIPK1 in E. coli”, the “other: percent of molecules shifted to low FRET with c-Jun” value is recorded as “weaker; reference 70”.
